Substitutions are numbered along the chain they refer to. Names may count otherwise. One block for each binder: values may come before it.
Legend:
[1] = molecular target: T1, MAGE-A1 278-286 with alanine at position 7 peptide on HLA-A*02:01 (human); assay: cytokine release
T1 peptide: KVLEYVAKV

[2] = molecular target: T2, MAGE-A1 278-286 with alanine at position 8 peptide on HLA-A*02:01 (human); assay: cytokine release
T2 peptide: KVLEYVIAV

[3] = molecular target: T3, MAGE-A1 278-286 with alanine at position 9 peptide on HLA-A*02:01 (human); assay: cytokine release
T3 peptide: KVLEYVIKA

[4] = molecular target: T4, MUC1 peptide on HLA-A*02:01 (human); assay: cytokine release
T4 peptide: LLLTVLTVV

[5] = molecular target: T5, MAGE-A1 278-286 with alanine at position 1 peptide on HLA-A*02:01 (human); assay: cytokine release
T5 peptide: AVLEYVIKV

[6] = molecular target: T6, MAGE-A1 278-286 with alanine at position 2 peptide on HLA-A*02:01 (human); assay: cytokine release
T6 peptide: KALEYVIKV

[7] = molecular target: T7, MAGE-A1 278-286 with alanine at position 3 peptide on HLA-A*02:01 (human); assay: cytokine release
T7 peptide: KVAEYVIKV

[8] = molecular target: T8, MAGE-A1 278-286 with alanine at position 4 peptide on HLA-A*02:01 (human); assay: cytokine release
T8 peptide: KVLAYVIKV

[9] = molecular target: T9, MAGE-A1 278-286 with alanine at position 5 peptide on HLA-A*02:01 (human); assay: cytokine release
T9 peptide: KVLEAVIKV

[10] = molecular target: T10, MAGE-A1 278-286 with alanine at position 6 peptide on HLA-A*02:01 (human); assay: cytokine release
T10 peptide: KVLEYAIKV

[11] = molecular target: T11, MAGE-A1 peptide on HLA-A*02:01 (human); assay: intracellular IFNγ and IL2, 6 h; transduced human PBMCs; peptide-loaded T2 cells and 721.211-A2 cells that express the antigen; full-length, on cells; conditions: chains Valpha:Vbeta
T11 chain: KVLEYVIKV

[12] = molecular target: T11, MAGE-A1 peptide on HLA-A*02:01 (human); assay: intracellular IFNγ; transduced human PBMCs (donor I); peptide titration on T2 cells; unit not printed for m2 (the others in pM); minimal activity not reached; full-length, on cells; conditions: chains Valpha:Vbeta
[13] = molecular target: T4, MUC1 peptide on HLA-A*02:01; assay: killing
[14] = molecular target: T12, MAGE-A1 peptide on HLA-A*02:01 (human); assay: multimer staining
T12 peptide: KVLEYVIKV

[15] = molecular target: MAGE-A1278-286 peptide presented on HLA-A2 on cells (peptide-loaded T2 cells; 721.211-A2 MAGE-A1+ cells) (human); assay: cell-based or functional assay

binding result [1]: recognises
binding result [2]: recognises
binding result [3]: recognises
binding result [4]: recognises
binding result [5]: recognises
binding result [6]: recognises
binding result [7]: recognises
binding result [8]: recognises
binding result [9]: recognises
binding result [10]: recognises
percent IFNγ+ cells towards 721.211-A2 cells [11]: 49.7%
EC50 of peptide [12]: 0.289
B1: hT27 TCR m2 (beta chain S109N) (TCR, V domains shown)
Valpha: GEDVEQSLFLSVREGDSSVINCTYTDSSSTYLYWYKQEPGAGLQLLTYIFSNMDMKQDQRLTVLLNKKDKHLSLRIADTQTGDSAIYFCAGSGGGTDKLIFGTGTRLQVFP
Vbeta: GAVVSQHPSWVICKSGTSVKIECRSLDFQATTMFWYRQFPKQSLMLMATSNEGSKATYEQGVEKDKFLINHASLTLSTLTVTSAHPEDSSFYICNAREPGQGPYEQYFGPGTRLTVT

binding result [1]: recognises
binding result [2]: recognises
binding result [3]: recognises
binding result [5]: recognises
binding result [6]: recognises
binding result [10]: recognises
binding result [14]: recognises
B2: hT27 TCR m8 (alpha chain G125V) (TCR, V domains shown)
Valpha: B1 Valpha with G104V
Vbeta: B1 Vbeta with N95S
binding result [13]: no recognition

binding result [1]: recognises
binding result [2]: recognises
binding result [3]: recognises
binding result [5]: recognises
binding result [6]: recognises
binding result [10]: recognises
binding result [14]: recognises
B3: hT27 TCR m3 (beta chain T63I) (TCR, V domains shown)
Valpha: B1 Valpha
Vbeta: B1 Vbeta with T49I, N95S
binding result [13]: no recognition

binding result [2]: no recognition
binding result [3]: recognises
binding result [5]: recognises
binding result [7]: no recognition
binding result [8]: no recognition
binding result [9]: no recognition
binding result [10]: no recognition
B4: hT27 TCR (TCR, V domains shown)
Valpha: B1 Valpha
Vbeta: B1 Vbeta with N95S
binding result [13]: no recognition

binding result [14]: recognises
B5: hT27 TCR with beta chain S32T and S109N mutations (TCR, V domains shown)
Valpha: B1 Valpha
Vbeta: B1 Vbeta with S18T

binding result [14]: recognises
B6: hT27 TCR m7 (alpha chain G125A) (TCR, V domains shown)
Valpha: B1 Valpha with G104A
Vbeta: B1 Vbeta with N95S

% IFNγ+ cells after co-culture with 721.211-A2 cells [15]: 3.3 % IFNγ+
EC50 of IFNγ production (peptide concentration), T2 cells loaded with MAGE-A1 peptide [15]: 3540 pM
B7: wild type (WT) hT27 TCR, MAGE-A1 specific (TCR)
TCR alpha: RGEDVEQSLFLSVREGDSSVINCTYTDSSSTYLYWYKQEPGAGLQLLTYIFSNMDMKQDQRLTVLLNKKDKHLSLRIADTQTGDSAIYFCAGSGGGTDKLIFGTGTRLQVFPNIQNPEPAVYQLKDPRSQDSTLCLFTDFDSQINVPKTMESGTFITDKTVLDMKAMDSKSNGAIAWSNQTSFTCQDIFKETNATYPSSDVPCDATLTEKSFETDMNLNFQNLSVMGLRILLLKVAGFNLLMTLRLWSS
TCR beta: AVVSQHPSWVICKSGTSVKIECRSLDFQATTMFWYRQFPKQSLMLMATSNEGSKATYEQGVEKDKFLINHASLTLSTLTVTSAHPEDSSFYICSAREPGQGPYEQYFGPGTRLTVTEDLRNVTPPKVSLFEPSKAEIANKQKATLVCLARGFFPDHVELSWWVNGKEVHSGVSTDPQAYKESNYSYCLSSRLRVSATFWHNPRNHFRCQVQFHGLSEEDKWPEGSPKPVTQNISAEAWGRADCGITSASYHQGVLSATILYEILLGKATLYAVLVSGLVLMAMVKKKNS

% IFNγ+ cells after co-culture with 721.211-A2 cells [15]: 3.8 % IFNγ+
EC50 of IFNγ production (peptide concentration), T2 cells loaded with MAGE-A1 peptide [15]: 0.982 pM
EC50 of IFNγ production against WT hT27 [15]: ~4 orders of magnitude lower than WT hT27 TCR
EC50 of IL2 production against WT hT27 [15]: ~3 orders of magnitude lower than WT hT27 TCR
B8: hT27 TCR comprising G125V mutation in the alpha chain (m8) (TCR)
TCR alpha: B7 TCR alpha with G105V
TCR beta: B7 TCR beta

% IFNγ+ cells after co-culture with 721.211-A2 cells [15]: 6.9 % IFNγ+
EC50 of IFNγ production (peptide concentration), T2 cells loaded with MAGE-A1 peptide [15]: 0.352 pM
EC50 of IFNγ production against WT hT27 [15]: ~4 orders of magnitude lower than WT hT27 TCR
EC50 of IL2 production against WT hT27 [15]: ~3 orders of magnitude lower than WT hT27 TCR
B9: hT27 TCR comprising T63I mutation in the beta chain (m3) (TCR, V domains shown)
V domain 1: RGEDVEQSLFLSVREGDSSVINCTYTDSSSTYLYWYKQEPGAGLQLLTYIFSNMDMKQDQRLTVLLNKKDKHLSLRIADTQTGDSAIYFCAGSGGGTDKLIFGTGTRLQVFP
V domain 2: AVVSQHPSWVICKSGTSVKIECRSLDFQATTMFWYRQFPKQSLMLMAISNEGSKATYEQGVEKDKFLINHASLTLSTLTVTSAHPEDSSFYICSAREPGQGPYEQYFGPGTRLTVTE

% IFNγ+ cells after co-culture with 721.211-A2 cells [15]: 49.7 % IFNγ+
EC50 of IFNγ production against WT hT27 [15]: ~4 orders of magnitude lower than WT hT27 TCR
EC50 of IL2 production against WT hT27 [15]: ~3 orders of magnitude lower than WT hT27 TCR
B10: hT27 TCR comprising S109N mutation in the beta chain (m2) (TCR, V domains shown)
V domain 1: B9 V domain 1
V domain 2: B9 V domain 2 with I48T, S94N

% IFNγ+ cells after co-culture with 721.211-A2 cells [15]: 5.4 % IFNγ+
EC50 of IFNγ production (peptide concentration), T2 cells loaded with MAGE-A1 peptide [15]: 0.275 pM
EC50 of IFNγ production against WT hT27 [15]: ~4 orders of magnitude lower than WT hT27 TCR
EC50 of IL2 production against WT hT27 [15]: ~3 orders of magnitude lower than WT hT27 TCR
B11: hT27 TCR comprising W55L+Y56F mutations in the alpha chain (m9) (TCR, V domains shown)
V domain 1: EDVEQSLFLSVREGDSSVINCTYTDSSSTYLYLFKQEPGAGLQLLTYIFSNMDMKQDQRLTVLLNKKDKHLSLRIADTQTGDSAIYFCAGSGGGTDKLIFGTGTRLQVFP
V domain 2: B9 V domain 2 with I48T

— patent US20230242611A1 (YEDA RESEARCH AND DEVELOPMENT, published 2023)
